Assay [1] has as its target T1, human FcγRIIIa (F158) extracellular domain, His-tagged GST fusion (human, UniProt P08637 17-208).
T1 construct: extracellular domain; also called hFcgRIII (F158); FcγRIII (F158 allele); not shown: C-terminal Gly/His6/GST tag
In words: Fcγ receptor ELISA; bar = fold change in binding relative to Herceptin (EC50 Herceptin/EC50 sample), log axis 0.1-100. In general terms: In an ELISA, binding on a coated surface is turned into a signal by an enzyme label.

The target in assay [2] is T2, mouse FcγRIII extracellular domain, His-tagged GST fusion (mouse, UniProt P08508 31-215).
T2 construct: extracellular domain; also called Mouse III; not shown: His tag and GST
T2 sequence (looked up): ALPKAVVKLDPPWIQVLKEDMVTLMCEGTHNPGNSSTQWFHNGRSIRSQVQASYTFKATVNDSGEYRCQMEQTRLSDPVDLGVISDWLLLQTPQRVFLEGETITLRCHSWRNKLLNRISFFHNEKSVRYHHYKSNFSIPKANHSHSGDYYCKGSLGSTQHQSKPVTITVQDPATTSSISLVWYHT
Described as above.

Assay [3] has as its target T3, mouse FcγRI extracellular domain, His-tagged GST fusion (mouse, UniProt P26151 25-297).
T3 construct: extracellular domain; also called Mouse I; mFcγRI; not shown: His tag and GST
T3 sequence (looked up): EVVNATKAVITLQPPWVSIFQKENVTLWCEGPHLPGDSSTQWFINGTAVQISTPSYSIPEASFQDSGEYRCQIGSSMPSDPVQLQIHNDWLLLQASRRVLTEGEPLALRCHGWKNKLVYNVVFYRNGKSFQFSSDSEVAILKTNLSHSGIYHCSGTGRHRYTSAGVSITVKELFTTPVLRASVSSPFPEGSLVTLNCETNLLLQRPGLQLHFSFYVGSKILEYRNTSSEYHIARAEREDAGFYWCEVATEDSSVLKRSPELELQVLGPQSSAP
Described as above.

Assay [4] concerns the target T4, human FcγRI extracellular domain, His-tagged GST fusion (human, UniProt P12314 16-292).
T4 construct: extracellular domain; also called hFcgRI; FcγRIA; not shown: C-terminal Gly/His6/GST tag
Described as above.

For assay [5], the target named is T5, mouse FcγRII extracellular domain, His-tagged GST fusion (mouse, UniProt P08101 30-210).
T5 construct: extracellular domain; also called Mouse II; not shown: His tag and GST
T5 sequence (looked up): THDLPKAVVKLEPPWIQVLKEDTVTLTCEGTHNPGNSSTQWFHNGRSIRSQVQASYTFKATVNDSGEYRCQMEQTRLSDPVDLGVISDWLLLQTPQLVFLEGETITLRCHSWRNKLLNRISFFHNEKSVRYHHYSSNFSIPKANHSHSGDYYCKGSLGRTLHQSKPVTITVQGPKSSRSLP
Described as above.

For assay [6], the target named is T1, human FcγRIIIa (F158) extracellular …. In words: ELISA, captured FcγR-GST, multimeric IgG.
Assay [7] has as its target T6, human FcγRIIa extracellular domain, His-tagged GST fusion (human, UniProt P12318 34-217).
T6 construct: extracellular domain; also called hFcgRIIa; CD32A; not shown: C-terminal Gly/His6/GST tag
T6 sequence (looked up): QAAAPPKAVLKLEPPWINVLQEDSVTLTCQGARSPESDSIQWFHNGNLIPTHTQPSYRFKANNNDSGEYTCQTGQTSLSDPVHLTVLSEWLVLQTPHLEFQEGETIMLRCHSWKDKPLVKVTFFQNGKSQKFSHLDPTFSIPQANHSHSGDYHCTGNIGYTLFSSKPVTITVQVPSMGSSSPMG
Nature of the assay: ELISA, captured FcγR-GST, multimeric IgG.

Assay [8] addresses T7, human FcγRIIb extracellular domain, His-tagged GST fusion (human, UniProt P31994 43-217).
T7 construct: extracellular domain; also called hFcgRIIb; CD32B; not shown: C-terminal Gly/His6/GST tag
T7 sequence (looked up): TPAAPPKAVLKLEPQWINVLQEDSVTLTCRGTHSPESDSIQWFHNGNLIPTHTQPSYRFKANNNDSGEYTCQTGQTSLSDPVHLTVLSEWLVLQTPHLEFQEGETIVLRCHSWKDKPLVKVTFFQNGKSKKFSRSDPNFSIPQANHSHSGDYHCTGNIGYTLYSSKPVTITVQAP
Nature of the assay: ELISA, captured FcγR-GST, multimeric IgG.

Assay [9] deals with T8, human FcγRIIIa (V158) extracellular domain, His-tagged GST fusion (human, UniProt P08637 17-208).
T8 construct: extracellular domain; also called hFcgRIII (V158); FcγRIII (V158 allele); not shown: C-terminal Gly/His6/GST tag
In words: ELISA, captured FcγR-GST, multimeric IgG.

The target of assay [10] is T4, human FcγRI extracellular domain, …. In words: ELISA, captured FcγR-GST, monomeric IgG.
For assay [11], the target named is T9, human BR3 on the cell surface (BJAB cells; primary human B cells) (human, UniProt Q96RJ3 1-184).
T9 construct: whole, on cells; also called BAFF-R; cell surface BR3
Nature of the assay: BJAB binding assay.

The term EC50 denotes the midpoint of the concentration-response curve. Lower therefore signals a more potent agent.

T1 sequence (P08637 17-208): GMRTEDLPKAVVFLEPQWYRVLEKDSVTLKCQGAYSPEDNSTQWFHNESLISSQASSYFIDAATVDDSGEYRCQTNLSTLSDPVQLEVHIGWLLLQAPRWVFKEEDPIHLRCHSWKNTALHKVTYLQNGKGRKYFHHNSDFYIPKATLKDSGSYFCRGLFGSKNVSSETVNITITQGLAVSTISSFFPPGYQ
T8 sequence (P08637 17-208 F176V): as the sequence (P08637 17-208) above, with F160V counted along it

B1: V3(5) (antibody, human IgG1, kappa)
heavy chain: EVQLVESGGGLVQPGGSLRLSCAASGFTISSSSIHWVRQAPGKGLEWVAWVLPSVGFTDYADSVKGRFTISADTSKNTAYLQMNSLRAEDTAVYYCARRVCYNRLGVCAGGMDYWGQGTLVTVSSASTKGPSVFPLAPSSKSTSGGTAALGCLVKDYFPEPVTVSWNSGALTSGVHTFPAVLQSSGLYSLSSVVTVPSSSLGTQTYICNVNHKPSNTKVDKKVEPKSCDKTHTCPPCPAPELLGGPSVFLFPPKPKDTLMISRTPEVTCVVVDVSHEDPEVKFNWYVDGVEVHNAKTKPREEQYNATYRVVSVLTVLHQDWLNGKEYKCKVSNAALPAPIAATISKAKGQPREPQVYTLPPSREEMTKNQVSLTCLVKGFYPSDIAVEWESNGQPENNYKTTPPVLDSDGSFFLYSKLTVDKSRWQQGNVFSCSVMHEALHNHYTQKSLSLSPG
light chain: DIQMTQSPSSLSASVGDRVTITCRASQDVSTAVAWYQQKPGKAPKLLIYSASFLYSGVPSRFSGSGSGTDFTLTISSLQPEDFATYYCQQSQISPPTFGQGTKVEIKRTVAAPSVFIFPPSDEQLKSGTASVVCLLNNFYPREAKVQWKVDNALQSGNSQESVTEQDSKDSTYSLSSTLTLSKADYEKHKVYACEVTHQGLSSPVTKSFNRGEC
notes: also called V3-46s S298A/K326A/E333A/K334A
For the molecule B1, the binding result in assay [1], in assay [2], in assay [3], in assay [4] and in [5] was “binds” throughout.

B2: V3-46s IgG (antibody)
heavy: not shown
light: DIQMTQSPSSLSASVGDRVTITCRASQDVSTAVAWYQQKPGKAPKLLIYSASFLYSGVPSRFSGSGSGTDFTLTISSLQPEDFATYYCQQSQISPPTFGQGTKVEIKRTVAAPSVFIFPPSDEQLKSGTASVVCLLNNFYPREAKVQWKVDNALQSGNSQESVTEQDSKDSTYSLSSTLTLSKADYEKHKVYACEVTHQGLSSPVTKSFNRGEC
notes: also called HV3-46S; HV3-46S-Bulk
In the case of B2, the EC50 in assay [6] was 1.52 µg/mL; in assay [7] it was 0.3 µg/mL; in [8], 1.02 µg/mL; in assay [9] it was 0.28 µg/mL; in assay [10], 0.00158 µg/mL. The binding result in [2], in [3] and in [5] was “binds” throughout.

B3: V3-1m (antibody, mouse IgG2a, V domains shown)
VH: EVQLVESGGGLVQPGGSLRLSCAASGFTISSNSIHWVRQAPGKGLEWVAWITPSDGNTDYADSVKGRFTISADTSKNTAYLQMNSLRAEDTAVYYCARRVCYNRLGVCAGGMDYWGQGTLVTVSS
VL: DIQMTQSPSSLSASVGDRVTITCRASQDVSTAVAWYQQKPGKAPKLLIYSASFLYSGVPSRFSGSGSGTDFTLTISSLQPEDFATYYCQQSRITPPTFGQGTKVEIKR
notes: also called mV3-1
As for B3, in [11], the binding result was “binds”.

B4: V3-1h (antibody, human IgG1, V domains shown)
VH: EVQLVESGGGLVQPGGSLRLSCAASGFTISSNSIHWVRQAPGKGLEWVAWITPSDGNTDYADSVKGRFTISADTSKNTAYLQMNSLRAEDTAVYYCARRVCYNRLGVCAGGMDYWGQGTLVTVSS
VL: DIQMTQSPSSLSASVGDRVTITCRASQDVSTAVAWYQQKPGKAPKLLIYSASFLYSGVPSRFSGSGSGTDFTLTISSLQPEDFATYYCQQSRITPPTFGQGTKVEIKR
Take B4: the binding result in [11] is “binds”.
